Test results: patent publication US20120172293A1 (Takeda / Millennium, published 2012)
Non-standard residues stand in square brackets, D forms with d. No end group written: not given here. *: point of attachment. X11 = ((1S)-1-carboxy-3-methylbutyl)carbamoyl, CC(C)C[C@H](NC(=O)*)C(=O)O; 4‑guanidinomethylbenzoyl = N=C(N)NCc1ccc(C(=O)*)cc1; Phe(3-F) = N[C@@H](Cc1cccc(F)c1)C(=O)O; Phe(3-Me) = Cc1cccc(C[C@H](N)C(=O)O)c1; Phe(4-Me) = Cc1ccc(C[C@H](N)C(=O)O)cc1; Phe(2-F) = N[C@@H](Cc1ccccc1F)C(=O)O; Phe(2-Me) = Cc1ccccc1C[C@H](N)C(=O)O; NMeF = CN[C@@H](Cc1ccccc1)C(=O)O; Tic = O=C(O)[C@@H]1Cc2ccccc2CN1; Cha = N[C@@H](CC1CCCCC1)C(=O)O; dIva = CC[C@@](C)(N)C(=O)O; 4Amb = NCc1ccc(C(=O)O)cc1; Iva = CC[C@](C)(N)C(=O)O; Aib = CC(C)(N)C(=O)O

T1: human Y2 receptor (human, UniProt P49146 1-381)
T1 sequence (looked up): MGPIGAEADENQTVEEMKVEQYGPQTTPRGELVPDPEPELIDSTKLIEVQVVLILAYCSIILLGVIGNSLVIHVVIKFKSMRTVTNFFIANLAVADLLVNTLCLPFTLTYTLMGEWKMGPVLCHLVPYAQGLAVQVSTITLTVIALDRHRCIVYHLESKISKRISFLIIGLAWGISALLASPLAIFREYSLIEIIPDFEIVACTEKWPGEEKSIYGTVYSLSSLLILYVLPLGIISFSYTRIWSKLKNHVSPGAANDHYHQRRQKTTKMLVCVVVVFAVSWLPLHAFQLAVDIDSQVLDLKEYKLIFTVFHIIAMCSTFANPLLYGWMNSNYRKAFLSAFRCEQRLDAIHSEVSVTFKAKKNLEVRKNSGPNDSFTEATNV


Assays:
[1] = molecular target: T1, human Y2 receptor; experiment: cell-based or functional assay
[2] = molecular target: T1, human Y2 receptor; experiment: RBA: [125I]-PYY displacement, hY2R/CHO membranes
How it was run: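 Bound radioligand was collected by filtration on PEI-treated GF/C filters, washed with Tris/MgCl₂/NaCl/CHAPS buffer pH 7.4, and counted by scintillation; IC₅₀ values were calculated.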

Row | Binder | GBA EC50 Ratio (vs PYY(3-36)), [35S]GTPγS [1] | IC50 Ratio (vs PYY(3-36)) [2]
1 | Ac-S[dP]RH[dIva][Cha]NL[Aib]TRQR[Cha]-NH2 (SMILES CC[C@@](C)(NC(=O)[C@H](Cc1c[nH]cn1)NC(=O)[C@H](CCCNC(=N)N)NC(=O)[C@H]1CCCN1C(=O)[C@H](CO)NC(C)=O)C(=O)N[C@@H](CC1CCCCC1)C(=O)N[C@@H](CC(N)=O)C(=O)N[C@@H](CC(C)C)C(=O)NC(C)(C)C(=O)N[C@H](C(=O)N[C@@H](CCCNC(=N)N)C(=O)N[C@@H](CCC(N)=O)C(=O)N[C@@H](CCCNC(=N)N)C(=O)N[C@@H](CC1CCCCC1)C(N)=O)[C@@H](C)O, also called compound No. 180) [Ac-[D-Pro24, D-Iva27, Cha28,36, Aib31]-PYY(23-36)] | 6 ratio | 8.1 ratio
2 | [4Amb]RAYINLITRQR[NMeF]-NH2 (N-terminus assumed; SMILES CC[C@H](C)[C@H](NC(=O)[C@H](Cc1ccc(O)cc1)NC(=O)[C@H](C)NC(=O)[C@H](CCCNC(=N)N)NC(=O)c1ccc(CN)cc1)C(=O)N[C@@H](CC(N)=O)C(=O)N[C@@H](CC(C)C)C(=O)N[C@H](C(=O)N[C@H](C(=O)N[C@@H](CCCNC(=N)N)C(=O)N[C@@H](CCC(N)=O)C(=O)N[C@@H](CCCNC(=N)N)C(=O)N(C)[C@@H](Cc1ccccc1)C(N)=O)[C@@H](C)O)[C@@H](C)CC, also called compound No. 16) [4-Aminomethylbenzoyl-[Ala26, Ile28,31, NMePhe36]-PYY(25-36)] | 45 ratio | 120 ratio
3 | {4‑guanidinomethylbenzoyl}-RAYINLITRQRY-NH2 (SMILES CC[C@H](C)[C@H](NC(=O)[C@H](Cc1ccc(O)cc1)NC(=O)[C@H](C)NC(=O)[C@H](CCCNC(=N)N)NC(=O)c1ccc(CNC(=N)N)cc1)C(=O)N[C@@H](CC(N)=O)C(=O)N[C@@H](CC(C)C)C(=O)N[C@H](C(=O)N[C@H](C(=O)N[C@@H](CCCNC(=N)N)C(=O)N[C@@H](CCC(N)=O)C(=O)N[C@@H](CCCNC(=N)N)C(=O)N[C@@H](Cc1ccc(O)cc1)C(N)=O)[C@@H](C)O)[C@@H](C)CC, also called compound No. 4) [4-Guanidinomethylbenzoyl-[Ala26, Ile28,31]-PYY(25-36)] | 1.1 ratio | 2.4 ratio
4 | [4Amb]RAYANLITRQRY-NH2 (N-terminus assumed; SMILES CC[C@H](C)[C@H](NC(=O)[C@H](CC(C)C)NC(=O)[C@H](CC(N)=O)NC(=O)[C@H](C)NC(=O)[C@H](Cc1ccc(O)cc1)NC(=O)[C@H](C)NC(=O)[C@H](CCCNC(=N)N)NC(=O)c1ccc(CN)cc1)C(=O)N[C@H](C(=O)N[C@@H](CCCNC(=N)N)C(=O)N[C@@H](CCC(N)=O)C(=O)N[C@@H](CCCNC(=N)N)C(=O)N[C@@H](Cc1ccc(O)cc1)C(N)=O)[C@@H](C)O, also called compound No. 31) [4-Aminomethylbenzoyl-[Ala26,28, Ile31]-PYY(25-36)] | 29 ratio | 42 ratio
5 | Ac-S[dP]RH[Cha][Cha]NL[Aib]TRQR[Phe(3-Me)]-NH2 (SMILES CC(=O)N[C@@H](CO)C(=O)N1CCC[C@@H]1C(=O)N[C@@H](CCCNC(=N)N)C(=O)N[C@@H](Cc1c[nH]cn1)C(=O)N[C@@H](CC1CCCCC1)C(=O)N[C@@H](CC1CCCCC1)C(=O)N[C@@H](CC(N)=O)C(=O)N[C@@H](CC(C)C)C(=O)NC(C)(C)C(=O)N[C@H](C(=O)N[C@@H](CCCNC(=N)N)C(=O)N[C@@H](CCC(N)=O)C(=O)N[C@@H](CCCNC(=N)N)C(=O)N[C@@H](Cc1cccc(C)c1)C(N)=O)[C@@H](C)O, also called compound No. 197) [Ac-[D-Pro24, Cha27,28, Aib31, Phe(3Me)36]-PYY(23-36)] | 1.9 ratio | 1.3 ratio
6 | Ac-S[dP]RH[Iva][Cha]NL[Aib]TRQR[Cha]-NH2 (SMILES CC[C@](C)(NC(=O)[C@H](Cc1c[nH]cn1)NC(=O)[C@H](CCCNC(=N)N)NC(=O)[C@H]1CCCN1C(=O)[C@H](CO)NC(C)=O)C(=O)N[C@@H](CC1CCCCC1)C(=O)N[C@@H](CC(N)=O)C(=O)N[C@@H](CC(C)C)C(=O)NC(C)(C)C(=O)N[C@H](C(=O)N[C@@H](CCCNC(=N)N)C(=O)N[C@@H](CCC(N)=O)C(=O)N[C@@H](CCCNC(=N)N)C(=O)N[C@@H](CC1CCCCC1)C(N)=O)[C@@H](C)O, also called compound No. 175) [Ac-[D-Pro24, Iva27, Cha28,36, Aib31]-PYY(23-36)] | 2.6 ratio | 6.4 ratio
7 | X11-S[dP]RH[Cha][Cha]NL[Aib]TRQR[Cha]-NH2 (SMILES CC(C)C[C@H](NC(=O)N[C@@H](CO)C(=O)N1CCC[C@@H]1C(=O)N[C@@H](CCCNC(=N)N)C(=O)N[C@@H](Cc1c[nH]cn1)C(=O)N[C@@H](CC1CCCCC1)C(=O)N[C@@H](CC1CCCCC1)C(=O)N[C@@H](CC(N)=O)C(=O)N[C@@H](CC(C)C)C(=O)NC(C)(C)C(=O)N[C@H](C(=O)N[C@@H](CCCNC(=N)N)C(=O)N[C@@H](CCC(N)=O)C(=O)N[C@@H](CCCNC(=N)N)C(=O)N[C@@H](CC1CCCCC1)C(N)=O)[C@@H](C)O)C(=O)O, also called compound No. 184) [[(1S)-1-carboxy-3-methylbutyl]carbamoyl-[D-Pro24, Cha27,28,36, Aib31]-PYY(23-36)] | 2.9 ratio | 1.5 ratio
8 | Ac-S[dP]RH[Cha][Cha]NL[Aib]TRQR[Phe(2-F)]-NH2 (SMILES CC(=O)N[C@@H](CO)C(=O)N1CCC[C@@H]1C(=O)N[C@@H](CCCNC(=N)N)C(=O)N[C@@H](Cc1c[nH]cn1)C(=O)N[C@@H](CC1CCCCC1)C(=O)N[C@@H](CC1CCCCC1)C(=O)N[C@@H](CC(N)=O)C(=O)N[C@@H](CC(C)C)C(=O)NC(C)(C)C(=O)N[C@H](C(=O)N[C@@H](CCCNC(=N)N)C(=O)N[C@@H](CCC(N)=O)C(=O)N[C@@H](CCCNC(=N)N)C(=O)N[C@@H](Cc1ccccc1F)C(N)=O)[C@@H](C)O, also called compound No. 194) [Ac-[D-Pro24, Cha27,28, Aib31, Phe(2F)36]-PYY(23-36)] | 1.3 ratio | 1.4 ratio
9 | [4Amb]RAYINLITRQR[Phe(4-Me)]-NH2 (N-terminus assumed; SMILES CC[C@H](C)[C@H](NC(=O)[C@H](Cc1ccc(O)cc1)NC(=O)[C@H](C)NC(=O)[C@H](CCCNC(=N)N)NC(=O)c1ccc(CN)cc1)C(=O)N[C@@H](CC(N)=O)C(=O)N[C@@H](CC(C)C)C(=O)N[C@H](C(=O)N[C@H](C(=O)N[C@@H](CCCNC(=N)N)C(=O)N[C@@H](CCC(N)=O)C(=O)N[C@@H](CCCNC(=N)N)C(=O)N[C@@H](Cc1ccc(C)cc1)C(N)=O)[C@@H](C)O)[C@@H](C)CC, also called compound No. 15) [4-Aminomethylbenzoyl-[Ala26, Ile28,31, Phe(4Me)36]-PYY(25-36)] | 5.5 ratio | 8.7 ratio
10 | Ac-R[dY]AS[dP]RH[Cha][Cha]NL[Aib]TRQR[Cha]-NH2 (SMILES CC(=O)N[C@@H](CCCNC(=N)N)C(=O)N[C@H](Cc1ccc(O)cc1)C(=O)N[C@@H](C)C(=O)N[C@@H](CO)C(=O)N1CCC[C@@H]1C(=O)N[C@@H](CCCNC(=N)N)C(=O)N[C@@H](Cc1c[nH]cn1)C(=O)N[C@@H](CC1CCCCC1)C(=O)N[C@@H](CC1CCCCC1)C(=O)N[C@@H](CC(N)=O)C(=O)N[C@@H](CC(C)C)C(=O)NC(C)(C)C(=O)N[C@H](C(=O)N[C@@H](CCCNC(=N)N)C(=O)N[C@@H](CCC(N)=O)C(=O)N[C@@H](CCCNC(=N)N)C(=O)N[C@@H](CC1CCCCC1)C(N)=O)[C@@H](C)O, also called compound No. 164) [Ac-[Arg20, D-Tyr21, D-Pro24, Cha27,28,36, Aib31]-PYY(20-36)] | 0.66 ratio | 0.44 ratio
11 | Ac-S[dP]RH[Cha][Cha]NL[Aib]TRQR[Phe(3-F)]-NH2 (SMILES CC(=O)N[C@@H](CO)C(=O)N1CCC[C@@H]1C(=O)N[C@@H](CCCNC(=N)N)C(=O)N[C@@H](Cc1c[nH]cn1)C(=O)N[C@@H](CC1CCCCC1)C(=O)N[C@@H](CC1CCCCC1)C(=O)N[C@@H](CC(N)=O)C(=O)N[C@@H](CC(C)C)C(=O)NC(C)(C)C(=O)N[C@H](C(=O)N[C@@H](CCCNC(=N)N)C(=O)N[C@@H](CCC(N)=O)C(=O)N[C@@H](CCCNC(=N)N)C(=O)N[C@@H](Cc1cccc(F)c1)C(N)=O)[C@@H](C)O, also called compound No. 195) [Ac-[D-Pro24, Cha27,28, Aib31, Phe(3F)36]-PYY(23-36)] | 1.5 ratio | 2.1 ratio
12 | [4Amb]RAYINLITRQR[Tic]-NH2 (N-terminus assumed; SMILES CC[C@H](C)[C@H](NC(=O)[C@H](Cc1ccc(O)cc1)NC(=O)[C@H](C)NC(=O)[C@H](CCCNC(=N)N)NC(=O)c1ccc(CN)cc1)C(=O)N[C@@H](CC(N)=O)C(=O)N[C@@H](CC(C)C)C(=O)N[C@H](C(=O)N[C@H](C(=O)N[C@@H](CCCNC(=N)N)C(=O)N[C@@H](CCC(N)=O)C(=O)N[C@@H](CCCNC(=N)N)C(=O)N1Cc2ccccc2C[C@H]1C(N)=O)[C@@H](C)O)[C@@H](C)CC, also called compound No. 17) [4-Aminomethylbenzoyl-[Ala26, Ile28,31, Tic36]-PYY(25-36)] | 66 ratio | 180 ratio
13 | Ac-S[dP]RH[Cha][Cha]NL[Aib]TRQR[Phe(2-Me)]-NH2 (SMILES CC(=O)N[C@@H](CO)C(=O)N1CCC[C@@H]1C(=O)N[C@@H](CCCNC(=N)N)C(=O)N[C@@H](Cc1c[nH]cn1)C(=O)N[C@@H](CC1CCCCC1)C(=O)N[C@@H](CC1CCCCC1)C(=O)N[C@@H](CC(N)=O)C(=O)N[C@@H](CC(C)C)C(=O)NC(C)(C)C(=O)N[C@H](C(=O)N[C@@H](CCCNC(=N)N)C(=O)N[C@@H](CCC(N)=O)C(=O)N[C@@H](CCCNC(=N)N)C(=O)N[C@@H](Cc1ccccc1C)C(N)=O)[C@@H](C)O, also called compound No. 196) [Ac-[D-Pro24, Cha27,28, Aib31, Phe(2Me)36]-PYY(23-36)] | 1.6 ratio | 1.6 ratio
